T1: HLA-DP DPB1*0401 (human)
T1 chain 1: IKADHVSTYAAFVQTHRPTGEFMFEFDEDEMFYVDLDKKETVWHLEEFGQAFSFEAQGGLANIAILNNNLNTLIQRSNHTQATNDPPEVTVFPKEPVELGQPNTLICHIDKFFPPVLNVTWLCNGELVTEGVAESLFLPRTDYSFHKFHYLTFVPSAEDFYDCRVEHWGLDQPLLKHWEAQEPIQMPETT
T1 chain 2: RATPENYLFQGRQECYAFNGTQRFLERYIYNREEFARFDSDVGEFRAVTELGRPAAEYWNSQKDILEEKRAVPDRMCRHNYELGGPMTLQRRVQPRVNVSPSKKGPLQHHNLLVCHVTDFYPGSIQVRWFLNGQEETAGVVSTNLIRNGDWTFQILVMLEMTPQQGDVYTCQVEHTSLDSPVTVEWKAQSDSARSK

T2: HLA-DP DPB1*0201 (human)
T2 chain 1: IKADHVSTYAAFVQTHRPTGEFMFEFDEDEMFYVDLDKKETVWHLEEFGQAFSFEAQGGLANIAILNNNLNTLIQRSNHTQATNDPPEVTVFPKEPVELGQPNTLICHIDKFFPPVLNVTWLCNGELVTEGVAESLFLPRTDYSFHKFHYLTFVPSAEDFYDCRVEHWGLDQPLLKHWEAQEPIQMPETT
T2 chain 2: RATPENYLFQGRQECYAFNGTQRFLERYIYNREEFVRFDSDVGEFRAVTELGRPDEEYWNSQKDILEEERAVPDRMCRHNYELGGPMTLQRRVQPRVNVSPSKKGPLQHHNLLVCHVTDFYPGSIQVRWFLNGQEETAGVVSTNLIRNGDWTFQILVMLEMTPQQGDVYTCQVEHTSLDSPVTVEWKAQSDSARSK


Molecular target: HLA-DQ molecule DQB1*0602 (human)
Experiment: inhibition of radiolabeled peptide binding to purified HLA

| Binder | IC50 [nM] |
| --- | --- |
| GGSILKISNKYHTKG [Bet v 1 peptide 3324.0352 (position 111)] | 6060 |

Molecular target: HLA-DQ molecule DQB1*0503 (human)
Experiment: as above

| Binder | IC50 [nM] |
| --- | --- |
| EHRWREIYNMVKFRM [Der p 4 peptide 3324.0986 (position 381)] | 4240 |

Molecular target: HLA-DQ molecule DQB1*0502 (human)
Experiment: as above

| Binder | IC50 [nM] |
| --- | --- |
| EHRWREIYNMVKFRM [Der p 4 peptide 3324.0986 (position 381)] | 8940 |
| SCWAFSGVAATESAY [Der p 1 peptide 3324.0832 (position 131)] | 4400 |

Molecular target: HLA DQ molecule DQB1*0202 (human)
Experiment: inhibition of radiolabeled peptide binding to purified HLA class II

| Binder | IC50 [nM] |
| --- | --- |
| LIEKINAGFKAAVAA [Lol p 5 1 peptide, position 71, LIEKINAGFKAAVAA (Peptide ID 3324.1175)] | 50000 |
| NVFDEVIPTAFTVGK [Lol p 3 peptide, position 76, NVFDEVIPTAFTVGK (Peptide ID 3324.1141)] | 1700 |
| DAFIAALTEALRVIA [Pha a 5 peptide, position 121, DAFIAALTEALRVIA (Peptide ID 3324.1432)] | 2040 |

Molecular target: HLA DQ molecule DQB1*0503 (human)
Experiment: as above

| Binder | IC50 [nM] |
| --- | --- |
| GTGSLVITASMSGHI [Cla h 8 (151-165) peptide GTGSLVITASMSGHI, Peptide ID 3324.0603] | 13800 |
| GCIHMARSLANEWRD [Cla h 8 (181-195) peptide GCIHMARSLANEWRD, Peptide ID 3324.0602] | 649 |
| QIDAFIANAGATADS [Cla h 8 (101-115) peptide QIDAFIANAGATADS, Peptide ID 3324.0601] | 84 |
| IFYDVFFAVANGNEL [Fel d 1 2 (26-40) peptide IFYDVFFAVANGNEL, Peptide ID 3324.1052] | 8130 |
| GGRLAFQEFMIVPSG [Cla h 6 (161-175) peptide GGRLAFQEFMIVPSG, Peptide ID 3324.0588] | 2440 |
| KELKGAYVYFASDAS [Cla h 8 (236-250) peptide KELKGAYVYFASDAS, Peptide ID 3324.0598] | 518 |

Molecular target: HLA DQ molecule DQB1*0503 (human)
Experiment: as above
Remark: another data set of the same source

| Binder | IC50 [nM] |
| --- | --- |
| LIEKINAGFKAAVAA [Lol p 5 1 peptide, position 71, LIEKINAGFKAAVAA (Peptide ID 3324.1175)] | 147 |
| NVFDEVIPTAFTVGK [Lol p 3 peptide, position 76, NVFDEVIPTAFTVGK (Peptide ID 3324.1141)] | 2900 |
| DAFIAALTEALRVIA [Pha a 5 peptide, position 121, DAFIAALTEALRVIA (Peptide ID 3324.1432)] | 50000 |

Molecular target: HLA DQ molecule DQB1*0502 (human)
Experiment: as above

| Binder | IC50 [nM] |
| --- | --- |
| GCIHMARSLANEWRD [Cla h 8 (181-195) peptide GCIHMARSLANEWRD, Peptide ID 3324.0602] | 673 |
| AFLLLGLAGNSSPSA [Cla h 5 (6-20) peptide, Peptide ID 3324.0576] | 718 |
| QIDAFIANAGATADS [Cla h 8 (101-115) peptide QIDAFIANAGATADS, Peptide ID 3324.0601] | 819 |
| IFYDVFFAVANGNEL [Fel d 1 2 (26-40) peptide IFYDVFFAVANGNEL, Peptide ID 3324.1052] | 6650 |
| GGRLAFQEFMIVPSG [Cla h 6 (161-175) peptide GGRLAFQEFMIVPSG, Peptide ID 3324.0588] | 4950 |
| KELKGAYVYFASDAS [Cla h 8 (236-250) peptide KELKGAYVYFASDAS, Peptide ID 3324.0598] | 4670 |

Molecular target: T1, HLA-DP DPB1*0401
Experiment: inhibition of radiolabeled peptide binding to purified HLA-DP

| Binder | IC50 [nM] |
| --- | --- |
| YVGHDEFDAFVAYHI [Der p 4 (476-490) peptide 3324.0975] | 273 |
| FDAFVAYHIGARIVS [Der p 4 (482-496) peptide 3324.0971] | 71 |
| GGSILKISNKYHTKG [Bet v 1 (111-125) peptide 3324.0352] | 10500 |
| EIYNMVKFRMIAGQE [Der p 4 (386-400) peptide 3324.0978] | 122 |
| PSVIPAARLFKAFIL [Aln g 1 (11-25) peptide 3324.0004] | 7280 |
| LEKISNEIKIVATPD [Bet v 1 (96-110) peptide 3324.0353] | 6820 |
| AFMLAWNYGVPRVMS [Der p 4 (321-335) peptide 3324.0977] | 5160 |
| FSGVAATESAYLAYR [Der f 1 (136-150) peptide 3324.0666] | 1440 |
| EHRWREIYNMVKFRM [Der p 4 (381-395) peptide 3324.0986] | 549 |
| RTLNKIVYIKPAKNI [Bet v 6 (206-220) peptide 3324.0387] | 41 |
| GGSILKISNKFHTKG [Aln g 1 (111-125) peptide 3324.0007] | 18500 |

Molecular target: T2, HLA-DP DPB1*0201
Experiment: as above

| Binder | IC50 [nM] |
| --- | --- |
| YVGHDEFDAFVAYHI [Der p 4 (476-490) peptide 3324.0975] | 177 |
| EIYNMVKFRMIAGQE [Der p 4 (386-400) peptide 3324.0978] | 5.3 |
| IEFRFYKEITNVFRG [Der p 4 (251-265) peptide 3324.0976] | 35 |
| PSVIPAARLFKAFIL [Aln g 1 (11-25) peptide 3324.0004] | 63 |
| LEKISNEIKIVATPD [Bet v 1 (96-110) peptide 3324.0353] | 7570 |
| SRGNRAFIAINLQKN [Der p 4 (416-430) peptide 3324.0974] | 7.2 |
| AFMLAWNYGVPRVMS [Der p 4 (321-335) peptide 3324.0977] | 185 |
| EHRWREIYNMVKFRM [Der p 4 (381-395) peptide 3324.0986] | 109 |
| GGSILKISNKFHTKG [Aln g 1 (111-125) peptide 3324.0007] | 843 |
